# Data as given in paper PMC7949057, “The cytoprotective protein MANF promotes neuronal survival independently from its role as a GRP78 cofactor” (The Journal of Biological Chemistry, 2021).
# B1: Nucleotide-binding domain (NBD) of GRP78 (domain or fragment)
# chain: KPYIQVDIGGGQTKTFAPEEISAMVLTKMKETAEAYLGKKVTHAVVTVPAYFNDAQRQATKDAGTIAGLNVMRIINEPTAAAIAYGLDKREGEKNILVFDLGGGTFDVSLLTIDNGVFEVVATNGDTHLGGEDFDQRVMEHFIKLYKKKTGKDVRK
# modifications: RED-tris-NTA dye held on the His-tag
# B2: Recombinant human MANF protein (natural protein, UniProt P55145 25-182, looked up)
# chain: LRPGDCEVCISYLGRFYQDLKDRDVTFSPATIENELIKFCREARGKENRLCYYIGATDDAATKIINEVSKPLAHHIPVEKICEKLKKKDSQICELKYDKQIDLSTVDLKKLRVKELKKILDDWGETCKGCAEKSDYIRKINELMPKYAPKAASARTDL
# notes: MANF, human, mature protein secreted from CHO-derived cells; also called wild-type MANF; FL-MANF; source: CHO-derived cell line (QMCF technology), purified from culture media (Q FF, SP HP, SEC)
# B3: CH1-derived substrate peptide (HTFPAVL) (peptide)
# peptide: HTFPAVL
# notes: peptide derived from the CH1 domain of an IgG heavy chain; also called IgG heavy chain-derived peptide; source: synthetic peptide (custom synthesis by Pepscan)
# Key:
# Details in all cases: both partners purified
# [1] = target: B2; experiment: MST; GRP78 or its variants labelled through the N-terminal His-tag, constant 20 nM; ligand titrated in 2-fold dilutions; 25 °C; MST buffer (10 mM Na-phosphate pH 7.4, 1 mM MgCl2, 3 mM KCl, 150 mM NaCl, 0.05% Tween-20); no nucleotide; for MANF with GRP78 also 0, 1, 100 or 200 uM CaCl2; fit with 1:1 stoichiometry
# [2] = target: T1, Recombinant hamster GRP78 protein (hamster, UniProt G3I8R9 19-654, RED-tris-NTA dye held on the His-tag); experiment: MST; as a4, in the presence of ADP
# T1 construct: GRP78 (BiP), hamster; also called BiP; full-length GRP78; not shown: His-tag, N-terminal, kept
# T1 sequence (G3I8R9 19-654): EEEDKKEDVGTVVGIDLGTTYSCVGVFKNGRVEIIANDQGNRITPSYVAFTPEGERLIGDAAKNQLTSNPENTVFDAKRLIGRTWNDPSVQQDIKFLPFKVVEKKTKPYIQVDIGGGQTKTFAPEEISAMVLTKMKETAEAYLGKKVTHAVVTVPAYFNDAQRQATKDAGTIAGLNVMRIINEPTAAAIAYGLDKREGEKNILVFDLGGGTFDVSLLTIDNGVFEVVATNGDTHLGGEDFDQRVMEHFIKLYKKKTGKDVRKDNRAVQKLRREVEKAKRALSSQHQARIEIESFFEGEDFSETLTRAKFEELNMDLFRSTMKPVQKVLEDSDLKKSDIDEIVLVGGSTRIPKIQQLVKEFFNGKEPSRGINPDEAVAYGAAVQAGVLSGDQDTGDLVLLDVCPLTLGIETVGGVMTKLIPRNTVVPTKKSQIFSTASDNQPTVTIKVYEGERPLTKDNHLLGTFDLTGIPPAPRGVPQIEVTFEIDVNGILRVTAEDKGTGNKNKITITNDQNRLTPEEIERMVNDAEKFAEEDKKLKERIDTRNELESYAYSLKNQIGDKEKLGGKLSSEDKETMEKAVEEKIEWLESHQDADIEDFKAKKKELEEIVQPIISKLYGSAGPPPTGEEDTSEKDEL
# [3] = target: T1, Recombinant hamster GRP78 protein; experiment: MST; GRP78 or its variants labelled through the N-terminal His-tag, constant 20 nM; ligand titrated in 2-fold dilutions; 25 °C; MST buffer (10 mM Na-phosphate pH 7.4, 1 mM MgCl2, 3 mM KCl, 150 mM NaCl, 0.05% Tween-20); no nucleotide; for MANF with GRP78 also 0, 1, 100 or 200 uM CaCl2; fit with 1:1 stoichiometry
# [4] = target: T1, Recombinant hamster GRP78 protein; experiment: MST; as a4, in the presence of AMP
Binder,Kd [1],Kd [2],Kd [3],Kd [4]
B1,280 nM,,,
B2,,5690 nM,380 nM,260 nM
B3,,120 nM,220 nM,
